{"source": "paper PMC6684614", "about": "“Histone chaperone exploits intrinsic disorder to switch acetylation specificity” (Nature Communications, 2019)", "biological_target": "the molecule itself", "assay": "solution structural model from NMR PRE distance restraints and SANS (M3 data-driven docking with HADDOCK); 145 PRE-derived distance restraints and six SANS curves; building blocks PDB 2hue and MD conformers of PDB 3q66; 33 structures, pairwise backbone RMSD 2.0 A; 50 mM citrate pH 6.5, 150 mM NaCl, 298 K"}
{"protein": "Vps75 (vacuolar protein sorting-associated protein 75) homodimer (natural protein, S. cerevisiae, UniProt P53853 1-264, looked up, Vps75, S. cerevisiae, full length; the C-terminal acidic domain (CTAD) is 226-264; isotope-labelled (ILV methyl, 15N, 2H) in some samples; also called Vps75_(2); ScVps75; source: E. coli BL21(DE3), purified (IMAC, TEV cleavage, ion exchange, SEC); not shown: His6, N-terminal, cleaved) MMSDQENENEHAKAFLGLAKCEEEVDAIEREVELYRLNKMKPVYEKRDAYIDEIAEFWKIVLSQHVSFANYIRASDFKYIDTIDKIKVEWLALESEMYDTRDFSITFHFHGIEGDFKEQQVTKVFQIKKGKDDQEDGILTSEPVPIEWPQSYDSINPDLIKDKRSPEGKKKYRQGMKTIFGWFRWTGLKPGKEFPHGDSLASLFSEEIYPFCVKYYAEAQRDLEDEEGESGLSADGDSEDDDGSLGEVDLPLSDEEPSSKKRKV", "values": [{"measurement": "stoichiometry N", "value": 2, "unit": "subunits"}]}
